The record followed here is patent publication US20080027001A1, “NOGO RECEPTOR FUNCTIONAL MOTIFS, PEPTIDE MIMETICS, AND MUTATED FUNCTIONAL MOTIFS RELATED THERETO, AND METHODS OF USING THE SAME” (priority 2006, published 2008).

T1: MAG-AP (Homo sapiens, UniProt P20916)
T1 construct: human MAG; NM_002361; amino acids 1-516; made in house; NgR1 transiently transfected into COS-7 cells
T1 sequence (P20916 20-516): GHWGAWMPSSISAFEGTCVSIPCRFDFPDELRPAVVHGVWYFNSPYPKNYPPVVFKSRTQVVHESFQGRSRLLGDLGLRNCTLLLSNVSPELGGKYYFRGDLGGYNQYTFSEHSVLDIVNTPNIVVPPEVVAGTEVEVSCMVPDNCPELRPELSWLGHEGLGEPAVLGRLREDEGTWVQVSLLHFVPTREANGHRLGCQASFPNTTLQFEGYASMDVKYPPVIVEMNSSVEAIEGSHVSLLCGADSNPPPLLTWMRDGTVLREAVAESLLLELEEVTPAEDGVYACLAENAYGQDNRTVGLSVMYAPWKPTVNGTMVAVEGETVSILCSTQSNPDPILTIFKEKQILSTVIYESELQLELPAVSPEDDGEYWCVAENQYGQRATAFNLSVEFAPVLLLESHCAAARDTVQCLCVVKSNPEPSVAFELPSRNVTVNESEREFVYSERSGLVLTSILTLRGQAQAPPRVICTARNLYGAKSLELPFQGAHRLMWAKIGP

B1: EM7: human NgR1 point mutant K277D/R279D (protein)
chain: CPGACVCYNEPKVTTSCPQQGLQAVPVGIPAASQRIFLHGNRISHVPAASFRACRNLTILWLHSNVLARIDAAAFTGLALLEQLDLSDNAQLRSVDPATFHGLGRLHTLHLDRCGLQELGPGLFRGLAALQYLYLQDNALQALPDDTFRDLGNLTHLFLHGNRISSVPERAFRGLHSLDRLLLHQNRVAHVHPHAFRDLGRLMTLYLFANNLSALPTEALAPLRALQYLRLNDNPWVCDCRARPLWAWLQDFDGSSSEVPCSLPQRLAGRDLKRLAANDLQGCAVATGPYHPIWTGRATDEEPLGLPKCCQPDAADKASVLEPGRPASAGNALKGRVPPGDSPPGNGSGPRHINDSPFGTLPGSAEPPLTAVRPEGSEPPGFPTSGPRRRPGCSRKNRTRSHCRLGQAGSGGGGTGDSEGS
B2: EM8: human NgR1 point mutant K277A, R279A (protein)
chain: CPGACVCYNEPKVTTSCPQQGLQAVPVGIPAASQRIFLHGNRISHVPAASFRACRNLTILWLHSNVLARIDAAAFTGLALLEQLDLSDNAQLRSVDPATFHGLGRLHTLHLDRCGLQELGPGLFRGLAALQYLYLQDNALQALPDDTFRDLGNLTHLFLHGNRISSVPERAFRGLHSLDRLLLHQNRVAHVHPHAFRDLGRLMTLYLFANNLSALPTEALAPLRALQYLRLNDNPWVCDCRARPLWAWLQAFAGSSSEVPCSLPQRLAGRDLKRLAANDLQGCAVATGPYHPIWTGRATDEEPLGLPKCCQPDAADKASVLEPGRPASAGNALKGRVPPGDSPPGNGSGPRHINDSPFGTLPGSAEPPLTAVRPEGSEPPGFPTSGPRRRPGCSRKNRTRSHCRLGQAGSGGGGTGDSEGS
B3: EM11: human NgR1 point mutant R279A (protein)
chain: CPGACVCYNEPKVTTSCPQQGLQAVPVGIPAASQRIFLHGNRISHVPAASFRACRNLTILWLHSNVLARIDAAAFTGLALLEQLDLSDNAQLRSVDPATFHGLGRLHTLHLDRCGLQELGPGLFRGLAALQYLYLQDNALQALPDDTFRDLGNLTHLFLHGNRISSVPERAFRGLHSLDRLLLHQNRVAHVHPHAFRDLGRLMTLYLFANNLSALPTEALAPLRALQYLRLNDNPWVCDCRARPLWAWLQKFAGSSSEVPCSLPQRLAGRDLKRLAANDLQGCAVATGPYHPIWTGRATDEEPLGLPKCCQPDAADKASVLEPGRPASAGNALKGRVPPGDSPPGNGSGPRHINDSPFGTLPGSAEPPLTAVRPEGSEPPGFPTSGPRRRPGCSRKNRTRSHCRLGQAGSGGGGTGDSEGS

The assay addresses T1, MAG-AP. The assay can be described thus: Cell-surface NgR binding assay, MAG-AP. To be noted: mutant NgR1 in COS-7 cells; MAG-AP 10 μg/ml (FIG. 7B). How it is done: COS-7 cells were cotransfected with either wild type or mutant NgR1 constructs along with a CMV-beta-galactosidase plasmid (pCMVb, BD Biosciences, San Jose, Calif.) as a transfection control. Transfection was performed in 6-well plates using Lipofectamine 2000 (Invitrogen, Carlsbad, Calif.) following the manufacturer's protocol. The next day, cells were trypsinized and seeded at 30,000 cells per well in duplicate polylysine-coated 96-well plates (BD Biosciences); one plate was used in the binding assay, and the other was used to correct for transfection efficiency by measuring beta-galactosidase activity (described below). The remaining cells were separately plated and assayed for surface expression of the NgR1 proteins by immunocytochemistry (Example 1.9) and for total NgR1 protein levels by Western blot analysis (Example 1.8). […] Binding of AP-tagged ligands was measured using the Great EscAPe SEAP Kit (BD Biosciences) following the manufacturer's recommended protocol. […] Sixty microliters of diluted CSPD® substrate (Applied Biosystems, Foster City, Calif.) was then added per well, incubated for 10 minutes at room temperature, and then read on an LMAXII luminometer (Molecular Devices). […] Beta-galactosidase activity was measured using the luminescent beta-gal detection kit II (BD Biosciences) following the manufacturer's recommended protocol. […]
Separate statistical analysis was performed for MAG-AP and Nogo-66-AP binding; a linear mixed model was fitted to the data using the receptors as the fixed effects and the experiments, replicates within each experiment, and receptor×experiment interactions as the random effects. […] Pairwise comparisons were performed between receptors in the framework of the linear mixed model, and raw p-values and Tukey-Kramer multiplicity-adjusted p-values were calculated. The corresponding 95% confidence intervals were also calculated.
(SEQ ID NO:51). […] Nogo-66-AP(C47V) concentration was determined by measuring alkaline phosphatase activity and by Western blot analysis for alkaline phosphatase. […]
Turning to B1, the “reduction in binding of soluble MAG (MAG-AP) relative to wild type NgR1” value (“reduction … (MAG-AP) relative to wild type NgR1” for short) was 57%.

B2: the “reduction … (MAG-AP) relative to wild type NgR1” value came to 58%.

Turning to B3, the “reduction … (MAG-AP) relative to wild type NgR1” value stood at 36%.
